Experimental data as given in US20250186597A1, “TARGETED IMMUNE ACTIVATION WITH IL-18 IMMUNOCYTOKINES” (BRIGHT PEAK THERAPEUTICS AG, priority 2023, published 2025).

Columns and labels:
Assay in all cases: cell-based or functional assay
[1] = target: IL-18 polypeptide of SEQ ID NO: 51 (T63A) (human) (UniProt Q14116)
[2] = target: IL-18 polypeptide of SEQ ID NO: 57 (E6K, C38S, K53A) (human) (UniProt Q14116)
[3] = target: IL-18 polypeptide of SEQ ID NO: 41 (K53A, S55A) (human) (UniProt Q14116)
[4] = target: IL-18 polypeptide of SEQ ID NO: 42 (E06K, K53A, S55A, T63A) (human) (UniProt Q14116)
[5] = target: IL-18 polypeptide C159 (V11I, C38A, K53A, C76A, H109A, C127A) (human) (UniProt Q14116)
[6] = target: IL-18 polypeptide of SEQ ID NO: 55 (K53A, T63A, C38S, C68S, C76S, C127S, K70C) (human) (UniProt Q14116)
[7] = target: IL-18 polypeptide C160 (V11I, C38A, K53A, C76A, D110A, C127A) (human) (UniProt Q14116)
[8] = target: IL-18 polypeptide C149 (V11I, E31A, C38A, K53A, C76A, C127A) (human) (UniProt Q14116)
[9] = target: IL-18 polypeptide of SEQ ID NO: 40 (E06K, S55A) (human) (UniProt Q14116)
[10] = target: IL-18 polypeptide of SEQ ID NO: 59 (E6K, C38A, K53A) (human) (UniProt Q14116)
[11] = target: IL-18 polypeptide C163 (V11I, C38A, C76A, Q103K, C127A) (human) (UniProt Q14116)
[12] = target: IL-18 polypeptide of SEQ ID NO: 31 (C38A, C76A, C127A) (human) (UniProt Q14116)
[13] = target: IL-18 polypeptide of SEQ ID NO: 34 (E06K, K53A, S55A) (human) (UniProt Q14116)
[14] = target: IL-18 polypeptide C145 (V11I, C38A, K53A, S55A, C76A, C127A) (human) (UniProt Q14116)
[15] = target: IL-18 polypeptide of SEQ ID NO: 54 (E06K, K53A, C38S, C68S, C76S, C127S, K70C) (human) (UniProt Q14116)
[16] = target: IL-18 polypeptide of SEQ ID NO: 50 (E06K, K53A, T63A) (human) (UniProt Q14116)
[17] = target: IL-18 polypeptide of SEQ ID NO: 53 (K53A, T63A) (human) (UniProt Q14116)
[18] = target: IL-18 polypeptide of SEQ ID NO: 37 (S55A) (human) (UniProt Q14116)
[19] = target: IL-18 polypeptide C146 (SEQ ID NO: 68; V11I, C38A, M51G, K53A, C76A, C127A) (human) (UniProt Q14116)
[20] = target: IL-18 polypeptide of SEQ ID NO: 60 (E6K, C38Q, K53A) (human) (UniProt Q14116)
[21] = target: IL-18 polypeptide of SEQ ID NO: 6 (E6K, V11I, C38A, K53A, T63A, C68A, C76A, D98C, C127A) (human) (UniProt Q14116)
[22] = target: IL-18 polypeptide C151 (V11I, D35A, C38A, K53A, C76A, C127A) (human) (UniProt Q14116)
Sequence of IL-18 polypeptide C151 (V11I, D35A, C38A, K53A, C76A, C127A) (human) (Q14116 37-193 V47I/D71A/C74A/K89A/C112A/C163A): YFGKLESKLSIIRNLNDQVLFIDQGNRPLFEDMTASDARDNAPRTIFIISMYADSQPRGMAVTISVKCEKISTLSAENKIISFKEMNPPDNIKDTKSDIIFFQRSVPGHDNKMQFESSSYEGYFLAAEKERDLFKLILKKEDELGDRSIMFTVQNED

Sequence of IL-18 polypeptide C160 (V11I, C38A, K53A, C76A, D110A, C127A) (human) (Q14116 37-193 V47I/C74A/K89A/C112A/D146A/C163A): as the sequence (Q14116 37-193 V47I/D71A/C74A/K89A/C112A/C163A) above, with A35D, D110A counted along it
Sequence of IL-18 polypeptide of SEQ ID NO: 51 (T63A) (human) (Q14116 37-193 T99A): as the sequence (Q14116 37-193 V47I/D71A/C74A/K89A/C112A/C163A) above, with I11V, A35D, A38C, A53K, T63A, A76C, A127C counted along it
Sequence of IL-18 polypeptide of SEQ ID NO: 31 (C38A, C76A, C127A) (human) (Q14116 37-193 C74A/C112A/C163A): as the sequence (Q14116 37-193 V47I/D71A/C74A/K89A/C112A/C163A) above, with I11V, A35D, A53K counted along it
Sequence of IL-18 polypeptide C163 (V11I, C38A, C76A, Q103K, C127A) (human) (Q14116 37-193 V47I/C74A/C112A/Q139K/C163A): as the sequence (Q14116 37-193 V47I/D71A/C74A/K89A/C112A/C163A) above, with A35D, A53K, Q103K counted along it
Sequence of IL-18 polypeptide of SEQ ID NO: 54 (E06K, K53A, C38S, C68S, C76S, C127S, K70C) (human) (Q14116 37-193 E42K/C74S/K89A/C104S/K106C/C112S/C163S): as the sequence (Q14116 37-193 V47I/D71A/C74A/K89A/C112A/C163A) above, with E6K, I11V, A35D, A38S, C68S, K70C, A76S, A127S counted along it
Sequence of IL-18 polypeptide of SEQ ID NO: 40 (E06K, S55A) (human) (Q14116 37-193 E42K/S91A): as the sequence (Q14116 37-193 V47I/D71A/C74A/K89A/C112A/C163A) above, with E6K, I11V, A35D, A38C, A53K, S55A, A76C, A127C counted along it
Sequence of IL-18 polypeptide of SEQ ID NO: 6 (E6K, V11I, C38A, K53A, T63A, C68A, C76A, D98C, C127A) (human) (Q14116 other isoform, or with tags, fused parts or gaps with the stated changes): as the sequence (Q14116 37-193 V47I/D71A/C74A/K89A/C112A/C163A) above, with E6K, A35D, T63A, C68A, D98C counted along it
Sequence of IL-18 polypeptide of SEQ ID NO: 59 (E6K, C38A, K53A) (human) (Q14116 other isoform, or with tags, fused parts or gaps C38A K53A C38A K53A): as the sequence (Q14116 37-193 V47I/D71A/C74A/K89A/C112A/C163A) above, with E6K, I11V, A35D, A76C, A127C counted along it
Sequence of IL-18 polypeptide of SEQ ID NO: 57 (E6K, C38S, K53A) (human) (Q14116 other isoform, or with tags, fused parts or gaps C38S K53A C38S K53A): as the sequence (Q14116 37-193 V47I/D71A/C74A/K89A/C112A/C163A) above, with E6K, I11V, A35D, A38S, A76C, A127C counted along it
Sequence of IL-18 polypeptide of SEQ ID NO: 37 (S55A) (human) (Q14116 37-193 S91A): as the sequence (Q14116 37-193 V47I/D71A/C74A/K89A/C112A/C163A) above, with I11V, A35D, A38C, A53K, S55A, A76C, A127C counted along it
Sequence of IL-18 polypeptide of SEQ ID NO: 34 (E06K, K53A, S55A) (human) (Q14116 37-193 E42K/K89A/S91A): as the sequence (Q14116 37-193 V47I/D71A/C74A/K89A/C112A/C163A) above, with E6K, I11V, A35D, A38C, S55A, A76C, A127C counted along it
Sequence of IL-18 polypeptide of SEQ ID NO: 53 (K53A, T63A) (human) (Q14116 37-193 K89A/T99A): as the sequence (Q14116 37-193 V47I/D71A/C74A/K89A/C112A/C163A) above, with I11V, A35D, A38C, T63A, A76C, A127C counted along it
Sequence of IL-18 polypeptide C149 (V11I, E31A, C38A, K53A, C76A, C127A) (human) (Q14116 37-193 V47I/E67A/C74A/K89A/C112A/C163A): as the sequence (Q14116 37-193 V47I/D71A/C74A/K89A/C112A/C163A) above, with E31A, A35D counted along it
Sequence of IL-18 polypeptide C145 (V11I, C38A, K53A, S55A, C76A, C127A) (human) (Q14116 37-193 V47I/C74A/K89A/S91A/C112A/C163A): as the sequence (Q14116 37-193 V47I/D71A/C74A/K89A/C112A/C163A) above, with A35D, S55A counted along it
Sequence of IL-18 polypeptide of SEQ ID NO: 42 (E06K, K53A, S55A, T63A) (human) (Q14116 37-193 E42K/K89A/S91A/T99A): as the sequence (Q14116 37-193 V47I/D71A/C74A/K89A/C112A/C163A) above, with E6K, I11V, A35D, A38C, S55A, T63A, A76C, A127C counted along it
Sequence of IL-18 polypeptide C146 (SEQ ID NO: 68; V11I, C38A, M51G, K53A, C76A, C127A) (human) (Q14116 37-193 V47I/C74A/M87G/K89A/C112A/C163A): as the sequence (Q14116 37-193 V47I/D71A/C74A/K89A/C112A/C163A) above, with A35D, M51G counted along it
Sequence of IL-18 polypeptide C159 (V11I, C38A, K53A, C76A, H109A, C127A) (human) (Q14116 37-193 V47I/C74A/K89A/C112A/H145A/C163A): as the sequence (Q14116 37-193 V47I/D71A/C74A/K89A/C112A/C163A) above, with A35D, H109A counted along it
Sequence of IL-18 polypeptide of SEQ ID NO: 50 (E06K, K53A, T63A) (human) (Q14116 37-193 E42K/K89A/T99A): as the sequence (Q14116 37-193 V47I/D71A/C74A/K89A/C112A/C163A) above, with E6K, I11V, A35D, A38C, T63A, A76C, A127C counted along it
Sequence of IL-18 polypeptide of SEQ ID NO: 41 (K53A, S55A) (human) (Q14116 37-193 K89A/S91A): as the sequence (Q14116 37-193 V47I/D71A/C74A/K89A/C112A/C163A) above, with I11V, A35D, A38C, S55A, A76C, A127C counted along it
Sequence of IL-18 polypeptide of SEQ ID NO: 55 (K53A, T63A, C38S, C68S, C76S, C127S, K70C) (human) (Q14116 37-193 C74S/K89A/T99A/C104S/K106C/C112S/C163S): as the sequence (Q14116 37-193 V47I/D71A/C74A/K89A/C112A/C163A) above, with I11V, A35D, A38S, T63A, C68S, K70C, A76S, A127S counted along it
Sequence of IL-18 polypeptide of SEQ ID NO: 60 (E6K, C38Q, K53A) (human) (Q14116 other isoform, or with tags, fused parts or gaps C38Q K53A C38Q K53A): as the sequence (Q14116 37-193 V47I/D71A/C74A/K89A/C112A/C163A) above, with E6K, I11V, A35D, A38Q, A76C, A127C counted along it

IC50 of inhibition by IL-18BP of IFNγ stimulation in NK92 cells [1]: 0.239 nM
IC50 of inhibition by IL-18BP of IFNγ stimulation in NK92 cells [2]: 146 nM
IC50 of inhibition by IL-18BP of IFNγ stimulation in NK92 cells [3]: 37.3 nM
IC50 of inhibition by IL-18BP of IFNγ stimulation in NK92 cells [4]: 1060 nM
IC50 of inhibition by IL-18BP of IFNγ stimulation in NK92 cells [5]: 1.81 nM
IC50 of inhibition by IL-18BP of IFNγ stimulation in NK92 cells [6]: > 1000 nM
IC50 of inhibition by IL-18BP of IFNγ stimulation in NK92 cells [7]: 3.18 nM
IC50 of inhibition by IL-18BP of IFNγ stimulation in NK92 cells [8]: 1.17 nM
IC50 of inhibition by IL-18BP of IFNγ stimulation in NK92 cells [9]: 15 nM
IC50 of inhibition by IL-18BP of IFNγ stimulation in NK92 cells [10]: 654 nM
IC50 of inhibition by IL-18BP of IFNγ stimulation in NK92 cells [11]: 0.823 nM
IC50 of IL-18BP-mediated inhibition of IFNγ secretion by NK92 cells [12]: 0.282 nM
IC50 of inhibition by IL-18BP of IFNγ stimulation in NK92 cells [13]: 229 nM
IC50 of inhibition by IL-18BP of IFNγ stimulation in NK92 cells [14]: 10.2 nM
IC50 of inhibition by IL-18BP of IFNγ stimulation in NK92 cells [15]: 23.5 nM
IC50 of inhibition by IL-18BP of IFNγ stimulation in NK92 cells [16]: > 1000 nM
IC50 of inhibition by IL-18BP of IFNγ stimulation in NK92 cells [17]: 18.2 nM
IC50 of inhibition by IL-18BP of IFNγ stimulation in NK92 cells [18]: 4.46 nM
IC50 of inhibition by IL-18BP of IFNγ stimulation in NK92 cells [19]: 733 nM
IC50 of inhibition by IL-18BP of IFNγ stimulation in NK92 cells [20]: 780 nM
IC50 of inhibition by IL-18BP of IFNγ stimulation in NK92 cells [21]: 5.85 nM
IC50 of inhibition by IL-18BP of IFNγ stimulation in NK92 cells [22]: 3.62 nM
Substance: Fc fused human IL-18 binding protein isoform a (IL-18BPa; R&D systems, Cat #119-BP) (from UniProt O95998 31-194) (Fc fusion)
